The supplement of paper PMC9112550, “Optimization of the antimicrobial peptide Bac7 by deep mutational scanning” (BMC Biology, 2022)

Test system: Escherichia coli TOP10
Assay: shrunken log2 fold change of peptide-encoding DNA abundance (4.5 h post-induction vs induction); higher = less antimicrobial activity (less host growth inhibition)
Settings: time post-induction: 4.5 h; library: site-saturation at positions 5, 18, 19, 20
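Further: peptides expressed intracellularly from a pBAD plasmid library in pooled LB shake-flask culture, induced with 0.3% L-arabinose, DNA abundance read by NGS, three biological replicates, DESeq2 with apeglm shrinkage.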

| Sequence | shrunken log2 fold change |
| --- | --- |
| RRIRIRPPRLPRPRPRPFFRPRP | -0.636 |
| RRIRDRPPRLPRPRPRPAEKPRP | 0.0328 |
| RRIRRRPPRLPRPRPRPCCCPRP | 0.0202 |
| RRIRARPPRLPRPRPRPVCDPRP | 0.992 |
| RRIRTRPPRLPRPRPRPQNYPRP | -0.311 |
| RRIRRRPPRLPRPRPRPCQEPRP | 0.139 |
| RRIRGRPPRLPRPRPRPFCIPRP | 0.494 |
| RRIRYRPPRLPRPRPRPSDFPRP | -1.03 |
| RRIRRRPPRLPRPRPRPPFHPRP | 0.321 |
| RRIRWRPPRLPRPRPRPWIHPRP | -0.192 |
| RRIRDRPPRLPRPRPRPQWEPRP | 0.033 |
| RRIRDRPPRLPRPRPRPRFDPRP | -0.0584 |
| RRIRRRPPRLPRPRPRPTGTPRP | 1.07 |
| RRIRIRPPRLPRPRPRPLCHPRP | -0.626 |
| RRIRQRPPRLPRPRPRPPQRPRP | 0.655 |
| RRIRMRPPRLPRPRPRPWMYPRP | -0.0417 |
| RRIRQRPPRLPRPRPRPYFAPRP | -0.292 |
| RRIRIRPPRLPRPRPRPNGQPRP | -0.0848 |
| RRIRMRPPRLPRPRPRPWKHPRP | -0.109 |
| RRIRYRPPRLPRPRPRPAKAPRP | 0.0797 |
| RRIRARPPRLPRPRPRPLLYPRP | 0.09 |
| RRIRMRPPRLPRPRPRPCHDPRP | -0.347 |
| RRIRFRPPRLPRPRPRPYWMPRP | -0.371 |
| RRIRPRPPRLPRPRPRPPKLPRP | 0.172 |
| RRIRARPPRLPRPRPRPMQYPRP | 0.00958 |

| Sequence | shrunken log2 fold change |
| --- | --- |
| RRIRQRPPRLPRPRPRPELIPRP | -0.017 |
| RRIRERPPRLPRPRPRPSIHPRP | -0.147 |
| RRIRVRPPRLPRPRPRPFMSPRP | 0.0334 |
| RRIRDRPPRLPRPRPRPADMPRP | -0.119 |
| RRIRSRPPRLPRPRPRPTQSPRP | 0.449 |
| RRIRGRPPRLPRPRPRPIYWPRP | 0.247 |
| RRIRMRPPRLPRPRPRPVSLPRP | 0.422 |
| RRIRCRPPRLPRPRPRPRGLPRP | 0.331 |
| RRIRIRPPRLPRPRPRPFRSPRP | -0.221 |
| RRIRERPPRLPRPRPRPHLMPRP | 1.19 |
| RRIRYRPPRLPRPRPRPSCRPRP | -0.6 |
| RRIRLRPPRLPRPRPRPESNPRP | 0.0589 |
| RRIRGRPPRLPRPRPRPYRVPRP | -0.0183 |
| RRIRQRPPRLPRPRPRPHFQPRP | -0.108 |
| RRIRMRPPRLPRPRPRPIPLPRP | 0.00552 |
| RRIRFRPPRLPRPRPRPQCAPRP | 0.057 |
| RRIRLRPPRLPRPRPRPRFVPRP | 0.123 |
| RRIRVRPPRLPRPRPRPMDVPRP | 0.0265 |
| RRIRVRPPRLPRPRPRPILPPRP | -0.331 |
| RRIRKRPPRLPRPRPRPWDFPRP | 0.953 |
| RRIRIRPPRLPRPRPRPCAGPRP | -0.000248 |
| RRIRYRPPRLPRPRPRPQPGPRP | -0.0846 |
| RRIRRRPPRLPRPRPRPPRYPRP | 0.978 |
| RRIRCRPPRLPRPRPRPYNHPRP | -0.416 |
| RRIRLRPPRLPRPRPRPNIDPRP | -0.213 |
